According to patent publication US20140087995A1 (published 2014):
Numbered stars: 1 amine (or outer) side, 2 acyl side, 3 side chain; on linkers, the order of the positions; unused ones are H or OH. Bridge positions count the residues as written; N and C are the ends. Side chains are listed from the residue outwards. Ends that are not written are not given here. * marks the point of attachment. C20 diacid = O=C(O)CCCCCCCCCCCCCCCCCCC(=O)*; γGlu = O=C(O)[C@H](CCC(=O)[*:2])N[*:1]

T1: rat calcitonin receptor (rat, UniProt P32214 25-516)
T1 construct: whole, on cells; In cell membranes prepared from transiently transfected BHK tk'ts 13 cells (Assay VIII); also called rCTR; rat calcitonin (a) receptor
T1 sequence (looked up): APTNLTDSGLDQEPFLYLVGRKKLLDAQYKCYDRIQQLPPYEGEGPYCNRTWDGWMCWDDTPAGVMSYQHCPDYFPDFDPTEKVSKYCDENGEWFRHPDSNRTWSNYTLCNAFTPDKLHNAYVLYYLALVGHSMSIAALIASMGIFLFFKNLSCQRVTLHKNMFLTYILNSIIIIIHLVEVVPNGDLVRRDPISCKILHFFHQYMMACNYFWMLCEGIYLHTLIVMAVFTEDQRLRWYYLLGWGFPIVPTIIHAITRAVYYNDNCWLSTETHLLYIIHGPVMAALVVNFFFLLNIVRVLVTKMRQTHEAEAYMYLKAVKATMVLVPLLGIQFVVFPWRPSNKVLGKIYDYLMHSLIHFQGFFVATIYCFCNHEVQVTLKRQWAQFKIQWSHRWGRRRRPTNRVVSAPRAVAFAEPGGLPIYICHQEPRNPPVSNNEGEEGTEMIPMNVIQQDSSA

T2: rat amylin receptor (rat calcitonin receptor + rat RAMP 3) (rat, UniProt P32214 25-516; Q9JJ73 23-147)
T2 construct: whole, on cells; Receptor complex in cell membranes prepared from transiently transfected BHK tk'ts 13 cells (Assay VI); also called rAmylin-R; rat amylin 3(a) receptor
T2 sequence (looked up) 1: T1 sequence (looked up)
T2 sequence (looked up) 2: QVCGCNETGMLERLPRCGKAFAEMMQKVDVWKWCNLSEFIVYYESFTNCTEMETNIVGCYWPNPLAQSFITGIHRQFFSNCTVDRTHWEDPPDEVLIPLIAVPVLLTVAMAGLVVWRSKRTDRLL

T3: human calcitonin receptor (human, UniProt P30988 25-474)
T3 construct: whole, on cells; Cell membranes from the stably transfected cell line (Assay VII); also called hCTR; hCT
T3 sequence (looked up): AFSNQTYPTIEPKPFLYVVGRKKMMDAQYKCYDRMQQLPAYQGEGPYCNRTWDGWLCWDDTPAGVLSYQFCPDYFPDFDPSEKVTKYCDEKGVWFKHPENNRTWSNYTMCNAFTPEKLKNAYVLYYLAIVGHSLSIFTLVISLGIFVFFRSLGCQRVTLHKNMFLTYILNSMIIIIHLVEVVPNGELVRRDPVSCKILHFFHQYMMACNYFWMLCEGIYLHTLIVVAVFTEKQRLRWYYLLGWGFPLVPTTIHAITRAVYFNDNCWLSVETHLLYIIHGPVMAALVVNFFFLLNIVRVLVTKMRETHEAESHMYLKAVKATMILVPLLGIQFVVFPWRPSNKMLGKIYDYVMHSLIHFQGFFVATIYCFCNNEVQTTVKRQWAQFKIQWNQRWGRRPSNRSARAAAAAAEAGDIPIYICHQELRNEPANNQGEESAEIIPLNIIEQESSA

B1: N^ε1-[(4S)-4-carboxy-4-(19-carboxynonadecanoylamino)butanoyl]-[Asp14,Arg17,Pro21,Pro27,Pro34,Arg35]-h-amylin (peptide)
peptide: K([γGlu-C20 diacid])CNTATCATQRLADFLRHSSPNFGAIPSSTNVGPRTY-NH2
modifications: disulfide 2-7; N-terminus assumed
SMILES: CC[C@H](C)[C@H](NC(=O)[C@H](C)NC(=O)CNC(=O)[C@H](Cc1ccccc1)NC(=O)[C@H](CC(N)=O)NC(=O)[C@@H]1CCCN1C(=O)[C@H](CO)NC(=O)[C@H](CO)NC(=O)[C@H](Cc1c[nH]cn1)NC(=O)[C@H](CCCNC(=N)N)NC(=O)[C@H](CC(C)C)NC(=O)[C@H](Cc1ccccc1)NC(=O)[C@H](CC(=O)O)NC(=O)[C@H](C)NC(=O)[C@H](CC(C)C)NC(=O)[C@H](CCCNC(=N)N)NC(=O)[C@H](CCC(N)=O)NC(=O)[C@@H](NC(=O)[C@H](C)NC(=O)[C@@H]1CSSC[C@H](NC(=O)[C@@H](N)CCCCNC(=O)CC[C@H](NC(=O)CCCCCCCCCCCCCCCCCCC(=O)O)C(=O)O)C(=O)N[C@@H](CC(N)=O)C(=O)N[C@@H]([C@@H](C)O)C(=O)N[C@@H](C)C(=O)N[C@@H]([C@@H](C)O)C(=O)N1)[C@@H](C)O)C(=O)N1CCC[C@H]1C(=O)N[C@@H](CO)C(=O)N[C@@H](CO)C(=O)N[C@H](C(=O)N[C@@H](CC(N)=O)C(=O)N[C@H](C(=O)NCC(=O)N1CCC[C@H]1C(=O)N[C@@H](CCCNC(=N)N)C(=O)N[C@H](C(=O)N[C@@H](Cc1ccc(O)cc1)C(N)=O)[C@@H](C)O)C(C)C)[C@@H](C)O
B2: N^ε1-[(4S)-4-carboxy-4-(19-carboxynonadecanoylamino)butanoyl]-[Asp14,Arg17,Pro21,Pro27,Pro34,Glu35]-h-amylin (peptide)
peptide: K([γGlu-C20 diacid])CNTATCATQRLADFLRHSSPNFGAIPSSTNVGPETY-NH2
modifications: disulfide 2-7; N-terminus assumed
SMILES: CC[C@H](C)[C@H](NC(=O)[C@H](C)NC(=O)CNC(=O)[C@H](Cc1ccccc1)NC(=O)[C@H](CC(N)=O)NC(=O)[C@@H]1CCCN1C(=O)[C@H](CO)NC(=O)[C@H](CO)NC(=O)[C@H](Cc1c[nH]cn1)NC(=O)[C@H](CCCNC(=N)N)NC(=O)[C@H](CC(C)C)NC(=O)[C@H](Cc1ccccc1)NC(=O)[C@H](CC(=O)O)NC(=O)[C@H](C)NC(=O)[C@H](CC(C)C)NC(=O)[C@H](CCCNC(=N)N)NC(=O)[C@H](CCC(N)=O)NC(=O)[C@@H](NC(=O)[C@H](C)NC(=O)[C@@H]1CSSC[C@H](NC(=O)[C@@H](N)CCCCNC(=O)CC[C@H](NC(=O)CCCCCCCCCCCCCCCCCCC(=O)O)C(=O)O)C(=O)N[C@@H](CC(N)=O)C(=O)N[C@@H]([C@@H](C)O)C(=O)N[C@@H](C)C(=O)N[C@@H]([C@@H](C)O)C(=O)N1)[C@@H](C)O)C(=O)N1CCC[C@H]1C(=O)N[C@@H](CO)C(=O)N[C@@H](CO)C(=O)N[C@H](C(=O)N[C@@H](CC(N)=O)C(=O)N[C@H](C(=O)NCC(=O)N1CCC[C@H]1C(=O)N[C@@H](CCC(=O)O)C(=O)N[C@H](C(=O)N[C@@H](Cc1ccc(O)cc1)C(N)=O)[C@@H](C)O)C(C)C)[C@@H](C)O
B3: N^ε1-[(4S)-4-carboxy-4-(19-carboxynonadecanoylamino)butanoyl]-[Glu14,Arg17,Pro21,Pro27,His35]-h-amylin (peptide)
peptide: K([γGlu-C20 diacid])CNTATCATQRLAEFLRHSSPNFGAIPSSTNVGSHTY-NH2
modifications: disulfide 2-7; N-terminus assumed
SMILES: CC[C@H](C)[C@H](NC(=O)[C@H](C)NC(=O)CNC(=O)[C@H](Cc1ccccc1)NC(=O)[C@H](CC(N)=O)NC(=O)[C@@H]1CCCN1C(=O)[C@H](CO)NC(=O)[C@H](CO)NC(=O)[C@H](Cc1c[nH]cn1)NC(=O)[C@H](CCCNC(=N)N)NC(=O)[C@H](CC(C)C)NC(=O)[C@H](Cc1ccccc1)NC(=O)[C@H](CCC(=O)O)NC(=O)[C@H](C)NC(=O)[C@H](CC(C)C)NC(=O)[C@H](CCCNC(=N)N)NC(=O)[C@H](CCC(N)=O)NC(=O)[C@@H](NC(=O)[C@H](C)NC(=O)[C@@H]1CSSC[C@H](NC(=O)[C@@H](N)CCCCNC(=O)CC[C@H](NC(=O)CCCCCCCCCCCCCCCCCCC(=O)O)C(=O)O)C(=O)N[C@@H](CC(N)=O)C(=O)N[C@@H]([C@@H](C)O)C(=O)N[C@@H](C)C(=O)N[C@@H]([C@@H](C)O)C(=O)N1)[C@@H](C)O)C(=O)N1CCC[C@H]1C(=O)N[C@@H](CO)C(=O)N[C@@H](CO)C(=O)N[C@H](C(=O)N[C@@H](CC(N)=O)C(=O)N[C@H](C(=O)NCC(=O)N[C@@H](CO)C(=O)N[C@@H](Cc1c[nH]cn1)C(=O)N[C@H](C(=O)N[C@@H](Cc1ccc(O)cc1)C(N)=O)[C@@H](C)O)C(C)C)[C@@H](C)O

What follows are binders tested against T1, rat calcitonin receptor (assay: SPA competition binding, displacement of 125I-Calcitonin from membranes of BHK tk'ts 13 cells with rat calcitonin receptor (Assay VIII)).

| Binder | IC50 |
| --- | --- |
| B1 | 58.5 nM |
| B2 | 18.6 nM |
| B3 | 26.3 nM |

These binders were tested against T1, rat calcitonin receptor (assay: ratio of binding IC50s: rat calcitonin receptor (Assay VIII) over rat amylin receptor (Assay VI)).

| Binder | Ratio rCT/rAmylin binding |
| --- | --- |
| B1 | 116 |
| B2 | 62 |
| B3 | 22.7 |

The binders below were run against T2, rat amylin receptor (rat calcitonin …) (assay: SPA competition binding, displacement of 125I-rat amylin from membranes of BHK tk'ts 13 cells with rat calcitonin receptor + rat RAMP 3 (Assay VI)).
Description: The binding assay was performed using scintillation proximity assay (SPA) beads (RPNQ0001) from PerkinElmer and cell membranes from the Amylin 3(a)/CRE-luc cells (as described in Assay (II)) were used. Membranes were prepared in the following way; the cells were rinsed with PBS and incubated with Versene for approximately 5 min before harvesting. The cells were flushed with PBS and the cell-suspension was centrifuged for 5 min at 1000 rpm. Cells were homogenized (ultrathurrax) in a buffer containing 20 mM Na-HEPES and 10 mM EDTA (pH 7.4) and centrifuged at 20.000 rpm for 15 min. The resulting pellet was resuspended, homogenized and centrifuged (20.000 rpm, 15 min) in a buffer containing 20 mM Na-HEPES and 0.1 mM EDTA (pH 7.4, buffer 2). The resulting pellet was resuspended in buffer 2 and protein concentration was measured (BCA protein Assay, Pierce). The homogenate was kept cold during the whole procedure. The membranes were kept at −80° C. until use. The assay was performed in a 384 well Optiplate (PerkinElmer) in a total volume of 40 ul. Membranes were mixed with SPA beads. Final concentration of membranes 35 ng/μL final and SPA beads was 0.05 mg/well. Test-compounds were dissolved in DMSO and further diluted in assay buffer (50 mM Hepes, pH 7.4, 1 mM CaCl2, 5 mM MgCl₂, 0.1% OA and 0.02% Tween20). […] The final mixture was incubated with shaking at 400 rpm for 120 min at 25° C. prior to centrifugation (1500 rpm, 10 min). Samples were analyzed on TopCounter™ (Packard). The IC₅₀ was calculated using (one site binding competition analysis) GraphPad Prism5 as a measure of receptor affinity.
Cells were grown in DMEM with 10% FBS and 1% Pen/Strep. Approximately 48 hours after transfection, the cells were harvested and membranes were prepared.

| Binder | IC50 |
| --- | --- |
| B1 | 0.504 nM |
| B2 | 0.3 nM |
| B3 | 1.16 nM |

What follows are binders tested against T3, human calcitonin receptor (assay: ratio of binding IC50s: human calcitonin receptor (Assay VII) over human amylin receptor (Assay V)).
Description: The resulting pellet was resuspended, homogenized and centrifuged (20.000 rpm, 15 min) in a buffer containing 20 mM Na-HEPES and 0.1 mM EDTA (pH 7.4, buffer 2). The resulting pellet was resuspended in buffer 2 and protein concentration was measured (BCA protein Assay, Pierce). The homogenate was kept cold during the whole procedure. The membranes were kept at −80° C. until use. The assay was performed in a 384 well Optiplate (PerkinElmer) in a total volume of 40 ul. Membranes were mixed with SPA beads. Final concentration of membranes 35 ng/μL final and SPA beads was 0.05 mg/well. Test-compounds were dissolved in DMSO and further diluted in assay buffer (50 mM Hepes, pH 7.4, 1 mM CaCl2, 5 mM MgCl₂, 0.1% OA and 0.02% Tween20). […] The final mixture was incubated with shaking at 400 rpm for 120 min at 25° C. prior to centrifugation (1500 rpm, 10 min). Samples were analyzed on TopCounter™ (Packard). The IC₅₀ was calculated using (one site binding competition analysis) GraphPad Prism5 as a measure of receptor affinity.
Membranes were prepared in the following way; the cells were rinsed with PBS and incubated with Versene for approximately 5 min before harvesting. The cells were flushed with PBS and the cell-suspension was centrifuged for 5 min at 1000 rpm. Cells were homogenized (Ultrathurrax) in a buffer containing 20 mM Na-HEPES and 10 mM EDTA (pH 7.4) and centrifuged at 20.000 rpm for 15 min. The resulting pellet was resuspended, homogenized and centrifuged (20.000 rpm, 15 min) in a buffer containing 20 mM Na-HEPES and 0.1 mM EDTA (pH 7.4, buffer 2). The resulting pellet was resuspended in buffer 2 and protein concentration was measured (BCA protein Assay, Pierce). The homogenate was kept cold during the whole procedure. The membranes were kept at −80° C. until use. Assay was performed in a 384 well Optiplate (PerkinElmer) in a total volume of 40 ul. Membranes were mixed with SPA beads.

| Binder | Ratio hCT/hAmylin binding |
| --- | --- |
| B1 | 151 |
| B2 | 16.7 |
| B3 | 26.4 |
